# The nanobody polyreactivity screen of Harvey et al. (2022)
# Assay: yeast display, Sf9 membrane polyspecificity reagent, FACS + sequencing; frameworks hold sequencing errors
# Summary of the method: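 Nanobodies came from a synthetic yeast display library in Saccharomyces cerevisiae BJ5465, induced with galactose for 36–48 hours and stained for 1 hour at 4 °C with 10% biotinylated, detergent-solubilized Sf9 membrane reagent. Cells were enriched on streptavidin microbeads and then FACS-sorted, with low and high (top ~1%) gates set on anti-HA fluorescence for expression and streptavidin fluorescence for reagent binding. Each polyreactivity label reflects the gate a clone came from. Genes were amplified by colony PCR, sequenced by MiSeq 2 × 250 and filtered by CDR length.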
row,Sequence,polyreactivity (PSR sort gate)
1,QVQLVESGGGLVQAGGSLRLSCAASGRTFSYSAMGWYRQAPGKERELVAAISSGGSTNYADSVKGRFTISRDNAKNTVYLQMNSLKPEDTAVYYCATSSIWGSGRVRWVTYYYWGQGTQVTVSS,low polyreactivity
2,QVQLVESGGGLVQAGGSLRLSCAASGRTFAYYAMGWYRQAPGKERELVAAITQSGGRTYYADSVKGRFTISRDNAKNTVYLQMNSLKPEDTAVYYCAARRISGKWEYDYWGQGTQVTVSS,high polyreactivity
3,QVQLVESGGGLVQAGGSLRLSCAASGRIFRGYAMGWYRQAPGKERELVADISSGASTNYADSVKGRFTISRDNAKKTVYFQMNSLKPEDTAVYYCAAQHSVLAYFEDDYWGQGTQVTVSS,low polyreactivity
4,QVQLVESGGGLVQAGGSLRLSCAASGRIFSRNAMGWSRQAPGKERELVAAISRSGGTTYYADSVKGRFTISRDNAKNTVYLQMISLKPEDTAVYYCAAYFWFYVQYEYWGQGTQVTVSS,high polyreactivity
5,QVQLVESGGGLVKAGGILRLSCAASGFNFSSYAMGWYIPAPGKERELVAAISGSGGTTYYADSVKGRFTISRDNAKNTVYLQLNSLKPEDTAVYYCATRLGLVITKYGYDYWGQGTQVTVSS,high polyreactivity
6,QVQLVESGGGLVQAGGSLRLSCAASGFTFSTNAMGWYRQAPGKETELVAGITSSGGNTYYADSVKGRFTISRDNAKNTVYLQMNSLKPEDTAVYYCAKRRNYVAYDYWGQGTQVTVSS,high polyreactivity
7,EVQLVESGGGLVQAGGSLRLSCAASGSTFRYNAMGWSRQAPGKEWEFVATISWTTGSTYYADSVKGRFTISRDNAKNTVYLQMNCLNAEDTAVYYCAAVASLFSDFRDYDYWGQGTQVTVSS,low polyreactivity
8,QVQLEESGGGLVQAGGSLRLSCADSGSTFYTNAMGWYRQAPGKERELVAAISASVGSTYYADSVKGRFTISRDNAKNTVYLQMNILKPEDTAVYYCAAYVWDSRRYDYWGQGTQVTVSS,low polyreactivity
9,QVQLVESGGGLVQAGGSLRLSCAASGSTFYDYVMGWYRQAPGKERELVAAITGSGGRTYYADSVKGRFTISRDNAKNTVYLQMNSLKPEDTAVYYCAVRVHYNRVYGRYSPRYDYWGQGTQVTVSS,high polyreactivity
10,QVQLVESGGGLLQAGGSLRLTCAASGSIFRYYSMGWYRQAPGKERELVASINSCGSTYYADSVKGRFTISRDNAKNTVYLQMKSLKPEDSAVYYCAAETSFYYRGYWKSYDYWGQGTQVTVSA,high polyreactivity
11,QVQLVESGGGLVQAGGSLRLSCAASGRIFRSYTMGWYRQAPGKERELVAAISKTGSRTYYADSVKGRFTISRDNAKNTVYLQMNSLKPEDTAVYYCAALFVHSYRDDYWGQGTQVTVSS,high polyreactivity
12,QVQLVESGGGLVQAGGSLGLSCAASGRTFANNAMGWYRQAPGKERELVARISNSGSTNYADSVKGRFTISRDNAKNTVYLQMNSLKPEDTAVYDCAARIVRLYSRYDYWGQGTQETVSS,low polyreactivity
13,QVQLVESGGGLVQAGGSLRLSCAASGRTFGTNAMGWYRQAPGKERELVAAISRRGGSTYYADSVKGRFTISRDNAKNTVYLQMNSLKPEDTAVYYCAKTIGLKHEDEYWGQGTQVTVSS,low polyreactivity
14,QFQLVESGGGLVQAGGSLRLSCAASGRTFKVYAMGWYRQAPGKERELVAAITGGGSTNYADSEKGRFTISRDNAKNTVYLQMNRLKAEDTAVYYGNARYYYRLVKWSRFSSYDYWGQGTQVTVSS,low polyreactivity
15,QVQLVESGGGLVQAGGSLRLSCAASGRTFDTYAMGWYRQAPGKERELVAAISTTGRTYYADSVKGRFTISRDNAKNTVYLQMNSLKPEDTALYYCATDPTRSPTSDWGYYYWGQGTQVTVSS,low polyreactivity
16,QVQLVESGGGLVQAGGSLRLSCAASGSIFYSYVMGWYRQAPGKERELVAAISRNGQSTYYADSVKGRFTISRDNAKNTVYLQMNSLKPEDTAVYYCAARSRDKYDYWGQGTQVTVSS,high polyreactivity
17,QVQLVESGGGLVQAGGSLRLSCAASGRTFYKYVMGWYRQAPGKERELVAAITRSGGGTYYADSVKGRFTISRDNAKNTVYLQMNSLKPEDTAVYYCAVSGRSYYRSDYWGQGTQVTVSS,high polyreactivity
18,QVQLVESGGGLVQAGGSLRLSCAASGLTFYHVNAMGWYRQAPGKERELVAGISTRGGSTYYADSVKGRFTISRDNAKNTVYLQMNSLKPEDTAVYYCAAYGSAAQKYPYDRPYRYGYWGQGTQVTVSS,high polyreactivity
19,QVQLVESGGGLVQAGGSLRLSCAASGRIFDYYYMGWYRQAPGKERELVAAISNGGSTYYADSVKGRFTISRDNAKNTVYLQMNSLKPEDTAVYYGAAVISFSGYDYYYWGQGTQVTVSS,high polyreactivity
20,QVHLVESGGGLVQAGGSLRLSGAASGSTFLEYARGWYRQAPGKERELVADISSGGGTHYADSVKGRFTISRDNAKNTVYLQMNSLKPDDTAVYYCNRDISGSSGGELDYWGQGSQVTVSS,low polyreactivity
21,QVQLVESGGGLVQAGGSLRLSCAASGRIFRAYAMGWYRQAPGKERELVASITGSGGSTYYADSVKGRFTISRDNAKNTVYLQMNSLKPEDTAVYYCAVASYRVWGVGTRFYYWGQGTQVTVSS,high polyreactivity
22,QVQLVESGGGLVQAGGSLRLSCAASGRIFYLYAMGWYRQAPGKERELVAAISRSGGSTYYADSVKGRFTISRDNAKNTVYLQMNSLKPEDTAVYYCNTVWYFSSRTRLHDYWGQGTQVTVSS,high polyreactivity

row,Sequence,polyreactivity (PSR sort gate)
1,QVQLVESGGGLVQAGGSLRLSCAASGIIFSYYDMGRYRQAPGKERELVATITGNGGSTYYADSVKGRFTISRDNAKNTVYLQMNSLKPEDTAVYYCAAQTTVYIYDYWGQGTQVTVSS,low polyreactivity
2,QVQLEESGGCLVQAGGSLRLSCAASGFTIRDYTMGWSRQAPGKERELVAPISRSGGSTYYADSVKGRFTISRDNATNTVYLQMYSLKPEDTAVYYFAALWHAVFYADYDYWGQGTQVSVSS,high polyreactivity
3,QVQLVESGGCLVQAGGSLRLSCAASGSIFKGYAMGWSRQAPGKERELVAAITIDGSTYYADSVKGRFTISRDNAKNTVYLQMNSLKPEDTAVYYCAAVYLWYGSWPLHFAAYDYWGQGTQVTVSS,low polyreactivity
4,QVQLVESGGGLVQAGGSLRLSCAASGSTFGTYTMGWYRPAPGKERELVAAISNRGGTYYADSVKGRFTISRDNAKNTVYLQMNSMKPEDTAVYYCAVARRWGYDYWGQGTQVTVSS,high polyreactivity
5,QVQLVESGGGLVQAGGSLRLSCAASGRTFTFYAMGWYRQAPGKERELVAAISTRGGRTYYADSVKGRFTISRDNAKNTVYFQMNSLKPDDTAVYYCASRARRRYYYWGQGTQVTVSS,high polyreactivity
6,QVQLVESGGGLVQAGGSLRLSCAASGITFYRYAMGWYRQAPGKEREFVAAINYGGSSTRYADSVKGRFTISRDNAKNTVYLQMNCLKPEDTAVYYCAVEKRYPRRRYDYWGQGTQVTVSS,low polyreactivity
7,QVQLVESGGGLVQAGGSLRLSCAASGITFKYYVMGWYRQAPGKEREFVAAISWGGGSTYYADSVKGRFTISRDNAKNTVYLQMNSLKPEDTAVYYCAARKGYYTHVQIGYRQSMDYWGQGTQVTVSS,high polyreactivity
8,QVQLVESGGGLVQAGGSLRLSCAASGFTFRRYAMGWYRQAPGKERELVAAISTSGGRTYYADSVKGRFTISRDNAKNTVYLQMNSLKPEDTAVYYCAARIPKQRDVRGSGMNYWGQGTQVTVSS,high polyreactivity
9,QVQLVESGGGLVQAGGSLRLSCAASGSTFVSYAMGWYRQAPGKEREMVASISSGDSTYADSVKGRFTISRDNAKNTVYLQMNSLKREDTAVYYCNVGNEGSYGFPVTYDYWGQGSQVTVSS,low polyreactivity
10,QVQLVESGGGLVQAGGSLRLSCAASGFTFYLYAMGWYRQAPGKERELVASISSGGRTKYADSVKGRFSISRDNAMNTVYLQMNSLKPEDTAVYYCAARGYFTRQFTPYDYWGQGTQVTVSS,high polyreactivity
11,QVQLVESGGGLVQAGGSLRLSCAASGRTFRTNAMGWYRQAAGKERELVAAIRASTGSTYYADSVKGRFTMSRDNAKNTVYLQMNSLKPEDTAVYYCAARLRRGLTATWYYYWGQGTQVTVSS,high polyreactivity
12,QDQHVESGGGLVQAGGSLRLSGAASGGTLWVNTMGWYRPAPGKERELVAAISRRGGSTYYADSVKGRFTISRDNAKNTVYLQMNSLKPEDTAVYYCAKGYSSHYWWAYDSWGQGTLVTVSS,high polyreactivity
13,QVQLVESGGGLVQAGGSLRLSCAASGNTFYGYAMGWYRQAPGKERELVASITLSGDSTYYADSVKGRFTISRDNAKNTVYLQMNSLNPEETAVYYFNAQFTPRYWGGYDSWGQGTQVTVSS,low polyreactivity
14,QVQLVESGGGLVQAGGSLRLSCAASGSTFVRYDMGWYRQAPGKERELVADISWSGVSTYADSVKGRFTISRDNAKNTVYLQMNSLKPEDTAVYYCAKDSDLYQRGGYYWGQGTQVTVSS,low polyreactivity
15,QVQLVESGGGLVQAGGSLRLSCAASGRIFSFYAMGWYRQAPGKERELVATISKRAGSTYYADSVKGRFTISRDNAKNTVYLQMNSLKPEDTEVYYCYAYKRGYLYRYNYWGQGTQVTVSS,high polyreactivity
16,QVQLVESGGGLVQAGGSLRLSCAASGRTFGVYAMGWYRQAPGKERELVAAIRWSGGGTYYADSVKGRFTISRDNAKNTVYLQMNSLKPEDTAVYYCNAEIWTEGGYWGQGTQVTVSS,low polyreactivity
17,QVQLVESGGGLVQAGGILRLSCAASGRIFLYYTMGWYRQAPGKEREFVAAITRSGSSTYYADSVKGRFTISRDNAKNTVYLQMNSLKREDTAVYYCNRVFTWRYGYRYEYWGQGTHVTVSS,high polyreactivity
18,QVQLVESGGGLVQAGGSLRLSCAASGSTFYGNAMGWYRQAPGKERELVATISWSGGSTYYADSVKGRFTISRDNAKNTVYLQMNSLKPEDTAVYYCNAEITTKSLVTRYSWYGGDYWGQGTQVTVSS,low polyreactivity
19,QVQLVESGGGLVQAGGSRSLSCAASGRNFYYYTMGWYRQAPGKERELVAAISWGGVNTDYADSVKGRFTISRDNAKNTVYLQMNSLKPEDTAVYYCAAGRWSVGTYDYWGQGTQVTVSS,low polyreactivity
20,QVQLVESGGGLVQAGGSLRLSSAASGFIYRGNVMGWYRQAPGKERELVAAITWSGGSTYYADSVKGRFTISRDNAKNTVYLQMNSLKPDDTAVYYCNADLYIYEWYPALHSNDYWGQGSQVTVSS,low polyreactivity
21,QVQLVESGGGLVKAVGSLRLSCAASGINLIRYVMGLYRQAPGKERELVAAISGSGGRTYYADSVKGRFTISRDNAKTTVDLQMNSLKPEDTAVYYCAAVSFRTTHGEYDYWGQGTQVTVSS,low polyreactivity
